Measured values reported in US20200046770A1.

Target: PDGF-DD (active, proteolytically processed homodimer) as used in solid-phase binding and SPR (human) (UniProt Q9GZP0)
Assay: SPR (Biacore T100), PDGF-DD immobilised on CM5 chip, NKp44 18-130-His6 in the mobile phase, steady-state fit for a 1:1 interaction

PDGF-DD (active, proteolytically processed homodimer) as used in solid-phase binding and SPR (human), sequence (Q9GZP0 184-370 limits assumed, form in doubt): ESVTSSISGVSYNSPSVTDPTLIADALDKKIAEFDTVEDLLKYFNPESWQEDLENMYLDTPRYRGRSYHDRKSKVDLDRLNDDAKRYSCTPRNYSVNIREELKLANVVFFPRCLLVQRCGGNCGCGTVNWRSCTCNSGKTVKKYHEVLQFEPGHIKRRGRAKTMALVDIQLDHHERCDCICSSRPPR

Substance: Bacterial expressed NKp44 (residues 18-130 with a C-terminal His6 tag) (from UniProt O95944 18-130) (receptor)
- Kd: 3.3 µM
